B1: Centriole and centriolar satellite protein OFD1 (Homo sapiens), O75665 (parent)
chain: MMAQSNMFTVADVLSQDELRKKLYQTFKDRGILDTLKTQLRNQLIHELMHPVLSGELQPRSISVEGSSLLIGASNSLVADHLQRCGYEYSLSVFFPESGLAKEKVFTMQDLLQLIKINPTSSLYKSLVSGSDKENQKGFLMHFLKELAEYHQAKESCNMETQTSSTFNRDSLAEKLQLIDDQFADAYPQRIKFESLEIKLNEYKREIEEQLRAEMCQKLKFFKDTEIAKIKMEAKKKYEKELTMFQNDFEKACQAKSEALVLREKSTLERIHKHQEIETKEIYAQRQLLLKDMDLLRGREAELKQRVEAFELNQKLQEEKHKSITEALRRQEQNIKSFEETYDRKLKNELLKYQLELKDDYIIRTNRLIEDERKNKEKAVHLQEELIAINSKKEELNQSVNRVKELELELESVKAQSLAITKQNHMLNEKVKEMSDYSLLKEEKLELLAQNKLLKQQLEESRNENLRLLNRLAQPAPELAVFQKELRKAEKAIVVEHEEFESCRQALHKQLQDEIEHSAQLKAQILGYKASVKSLTTQVADLKLQLKQTQTALENEVYCNPKQSVIDRSVNGLINGNVVPCNGEISGDFLNNPFKQENVLARMVASRITNYPTAWVEGSSPDSDLEFVANTKARVKELQQEAERLEKAFRSYHRRVIKNSAKSPLAAKSPPSLHLLEAFKNITSSSPERHIFGEDRVVSEQPQVGTLEERNDVVEALTGSAASRLRGGTSSRRLSSTPLPKAKRSLESEMYLEGLGRSHIASPSPCPDRMPLPSPTESRHSLSIPPVSSPPEQKVGLYRRQTELQDKSEFSDVDKLAFKDNEEFESSFESAGNMPRQLEMGGLSPAGDMSHVDAAAAAVPLSYQHPSVDQKQIEEQKEEEKIREQQVKERRQREERRQSNLQEVLERERRELEKLYQERKMIEESLKIKIKKELEMENELEMSNQEIKDKSAHSENPLEKYMKIIQQEQDQESADKSSKKMVQEGSLVDTLQSSDKVESLTGFSHEELDDSW

Variants of: B1
Conditions: with gbrap_human GABARAP
In the case of Y961A;I964A, the “effect of a mutation on the interaction” value is reported as “disrupting interaction”.

Variants of: B1
Conditions: with mlp3b_human MAP1LC3B
In the case of Y961A;I964A, the “effect of a mutation on the interaction” value is reported as “disrupting interaction”.

Variants of: B1
Conditions: with gbrap_human GABARAP
Remark: another data set of the same source
For Y961A;I964A, the “effect of a mutation on the interaction” value was “disrupting interaction”.
